This note sets out measurements from article PMC11074156.

Chain of EGFP-full length GRP78 (wild type), P11021 K621A (P11021 19-654 K621A): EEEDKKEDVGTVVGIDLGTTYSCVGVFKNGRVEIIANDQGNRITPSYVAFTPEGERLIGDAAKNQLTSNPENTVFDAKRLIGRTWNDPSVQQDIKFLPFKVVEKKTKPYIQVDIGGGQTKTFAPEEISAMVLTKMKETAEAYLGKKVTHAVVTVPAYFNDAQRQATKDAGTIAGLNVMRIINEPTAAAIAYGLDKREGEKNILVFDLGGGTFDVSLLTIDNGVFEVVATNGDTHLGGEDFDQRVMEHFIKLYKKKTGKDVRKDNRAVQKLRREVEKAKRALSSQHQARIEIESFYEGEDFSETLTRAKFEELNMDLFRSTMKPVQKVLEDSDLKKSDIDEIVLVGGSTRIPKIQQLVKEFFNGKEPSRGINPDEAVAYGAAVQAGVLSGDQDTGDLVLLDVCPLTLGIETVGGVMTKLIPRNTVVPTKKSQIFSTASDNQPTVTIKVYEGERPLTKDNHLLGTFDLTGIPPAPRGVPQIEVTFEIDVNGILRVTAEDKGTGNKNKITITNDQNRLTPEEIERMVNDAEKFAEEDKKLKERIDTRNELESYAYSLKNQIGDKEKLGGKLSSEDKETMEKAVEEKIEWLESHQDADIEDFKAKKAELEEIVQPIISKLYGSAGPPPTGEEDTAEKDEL
Chain of EGFP-full length GRP78 (wild type), P11021 R470E (P11021 19-654 R470E): as the sequence (P11021 19-654 K621A) above, with R452E, A603K counted along it
Chain of EGFP-full length GRP78 (wild type), P11021 T518A (P11021 19-654 T518A): as the sequence (P11021 19-654 K621A) above, with T500A, A603K counted along it
Chain of EGFP-full length GRP78 (wild type), P11021 R492E (P11021 19-654 R492E): as the sequence (P11021 19-654 K621A) above, with R474E, A603K counted along it
Chain of EGFP-full length GRP78 (wild type), P11021 K585A (P11021 19-654 K585A): as the sequence (P11021 19-654 K621A) above, with K567A, A603K counted along it
Chain of EGFP-full length GRP78 (wild type), P11021 V429Q (P11021 19-654 V429Q): as the sequence (P11021 19-654 K621A) above, with V411Q, A603K counted along it

In one experiment the target is ZIKV E protein expressed from pcDNA3.1+_19CprME-Zika (with prM). The experiment in a line: co-immunoprecipitation (GFP trap beads), western blot band quantitation. Conditions: HEK293T/17 cells, 48 h post transfection; parent: est. 1.0; read off a plot. In general terms: In western blotting, separated proteins are transferred to a membrane and probed.
For the substance “EGFP-full length GRP78 (wild type) (from UniProt P11021) V429Q”, the ratio to parent was 1.1.
Still for that read-out and setting: for “EGFP-full length GRP78 (wild type) (from UniProt P11021) K621A” the value was 0.72; for “EGFP-full length GRP78 (wild type) (from UniProt P11021) T518A”, 0.42.
Same read-out and setting: under “EGFP-full length GRP78 (wild type) (from UniProt P11021) K585A” stands 1; under “EGFP-full length GRP78 (wild type) (from UniProt P11021) H477E”, 1.3.
On the same count and under the same terms, for “EGFP-full length GRP78 (wild type) (from UniProt P11021) R492E” the value was 0.47.

For a further experiment, the target named is ATF6 (activating transcription factor 6), endogenous (UniProt P18850). The description is as above. To be noted: HEK293T/17 cells, 48 h post transfection; parent: est. 1.0; read off a plot.
Chain of ATF6 (activating transcription factor 6), endogenous (P18850 whole entry): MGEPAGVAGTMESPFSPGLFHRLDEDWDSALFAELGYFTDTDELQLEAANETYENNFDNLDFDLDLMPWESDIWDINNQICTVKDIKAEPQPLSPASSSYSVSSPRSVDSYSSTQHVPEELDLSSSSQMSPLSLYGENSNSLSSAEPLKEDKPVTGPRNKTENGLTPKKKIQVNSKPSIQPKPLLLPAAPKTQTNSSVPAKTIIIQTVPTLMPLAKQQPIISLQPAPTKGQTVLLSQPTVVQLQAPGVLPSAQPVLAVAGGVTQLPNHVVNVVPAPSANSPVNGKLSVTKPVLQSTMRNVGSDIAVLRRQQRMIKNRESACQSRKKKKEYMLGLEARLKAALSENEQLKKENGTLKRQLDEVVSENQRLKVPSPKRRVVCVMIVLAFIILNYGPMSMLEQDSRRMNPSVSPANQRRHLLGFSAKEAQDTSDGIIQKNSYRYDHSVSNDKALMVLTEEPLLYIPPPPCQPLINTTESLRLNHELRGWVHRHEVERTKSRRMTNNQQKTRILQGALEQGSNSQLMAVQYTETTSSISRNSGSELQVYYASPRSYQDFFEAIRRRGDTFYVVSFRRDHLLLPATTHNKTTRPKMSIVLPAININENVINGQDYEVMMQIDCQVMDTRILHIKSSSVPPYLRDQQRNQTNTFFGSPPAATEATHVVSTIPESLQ
For “EGFP-full length GRP78 (wild type), P11021 V429Q”, the ratio to parent was 0.98.
In the case of “EGFP-full length GRP78 (wild type), P11021 K585A”, the ratio to parent was 0.82.
For the substance “EGFP-full length GRP78 (wild type), P11021 K621A”, the ratio to parent came out at 0.82.
The same measure, in the same setting: for “EGFP-full length GRP78 (wild type), P11021 R470E” the value was 0.95.
The same measure, in the same setting: for “EGFP-full length GRP78 (wild type), P11021 T518A” the value was 0.4; for “EGFP-full length GRP78 (wild type), P11021 R492E”, 0.28.
